Source: the Immune Epitope Database (IEDB)
Blank lines part the entries; values can stand above or below the sequence they belong to.

Columns and labels:
[1] = target: HLA-B*07:02; assay: IEDB peptide-MHC binding, purified MHC/competitive/radioactivity; filed as Kd, often an IC50 or EC50 that approximates it; ≥ and ≤ were set here for values at or beyond the usual limits of such assays
[2] = target: HLA-B*54:01; assay: as above
[3] = target: HLA-B*35:01; assay: as above
[4] = target: HLA-B*53:01; assay: as above
[5] = target: HLA-B*51:01; assay: as above
[6] = target: HLA-A*03:01; assay: IEDB peptide-MHC binding, purified MHC/competitive/fluorescence; ≥ and ≤ were set here for values at or beyond the usual limits of such assays
[7] = target: HLA-A*11:01; assay: as above
[8] = target: HLA-A*03:01; assay: IEDB peptide-MHC binding, purified MHC/competitive/fluorescence; filed as Kd, often an IC50 or EC50 that approximates it; ≥ and ≤ were set here for values at or beyond the usual limits of such assays
[9] = target: HLA-B*15:01; assay: IEDB peptide-MHC binding, purified MHC/competitive/fluorescence; ≥ and ≤ were set here for values at or beyond the usual limits of such assays
[10] = target: HLA-A*24:02; assay: as above; settings: source organism: Zaire ebolavirus
[11] = target: HLA-A*02:01; assay: as above
[12] = target: HLA-B*27:03; assay: IEDB peptide-MHC binding, purified MHC/competitive/fluorescence; filed as Kd, often an IC50 or EC50 that approximates it; ≥ and ≤ were set here for values at or beyond the usual limits of such assays; settings: source organism: Homo sapiens
[13] = target: HLA-B*57:01; assay: as above; settings: source organism: Homo sapiens
[14] = target: HLA-B*39:01; assay: as above; settings: source organism: Homo sapiens
[15] = target: HLA-B*46:01; assay: as above; settings: source organism: Homo sapiens
[16] = target: HLA-A*69:01; assay: as above; settings: source organism: Homo sapiens
[17] = target: HLA-B*18:01; assay: as above; settings: source organism: Homo sapiens
[18] = target: HLA-B*51:01; assay: as above; settings: source organism: Homo sapiens
[19] = target: HLA-A*02:01; assay: as above; settings: source organism: Homo sapiens
[20] = target: HLA-A*01:01; assay: IEDB peptide-MHC binding, purified MHC/direct/fluorescence; filed as Kd, often an IC50 or EC50 that approximates it; ≥ and ≤ were set here for values at or beyond the usual limits of such assays; settings: source organism: Homo sapiens
[21] = source organism: Triticum aestivum
[22] = source organism: Zaire ebolavirus
[23] = source organism: SARS coronavirus Tor2
[24] = source organism: Dengue virus 3 Martinique/1243/1999
[25] = source organism: Vaccinia virus WR

Kd [1, 21]: 0.109 µM | Kd [2, 21]: 1.39 µM | Kd [3, 21]: 10.6 µM | Kd [4, 21]: 14.9 µM | Kd [5, 21]: 0.0323 µM
Sequence: LPYPQPQL

Sequence: LQLPRDRFK
IC50 [6, 22]: 5.42 µM | IC50 [7, 22]: 1.76 µM

Sequence: MMYTVSLGH
Kd ([8]; source organism: Vibrio parahaemolyticus AQ3810): 0.0012 µM

Sequence: MPNMLRIMA
Kd [1, 23]: 0.0098 µM | Kd [2, 23]: 0.000256 µM | Kd [3, 23]: 0.0117 µM | Kd [4, 23]: 0.027 µM | Kd [5, 23]: 0.393 µM

Sequence: MPVTAASAAQ
Kd [3, 24]: 1.59 µM | Kd [5, 24]: ≥ 20.5 µM

Sequence: MVTRFESLK
Kd ([8]; source organism: Influenza A virus (A/Swine/Minnesota/55551/2000(H1N2))): 0.163 µM

Sequence: NTTGKLIWK
IC50 [6, 22]: 24.7 µM | IC50 [7, 22]: 1.04 µM

Sequence: PSVIEEWKK
IC50 [7, 25]: ≥ 107 µM

Kd [1, 21]: 6.87 µM | Kd [2, 21]: ≥ 87.7 µM | Kd [3, 21]: 15 µM | Kd [4, 21]: ≥ 37.5 µM | Kd [5, 21]: 12.6 µM
Sequence: QPLSQVSF

Kd [1, 21]: 0.632 µM | Kd [2, 21]: ≥ 23.4 µM | Kd [3, 21]: 0.369 µM | Kd [4, 21]: ≥ 22 µM | Kd [5, 21]: 0.15 µM
Sequence: QPYLQLQPFL

Sequence: QQTNAMVTL
IC50 [9, 22]: ≥ 76 µM | IC50 [10]: 59.1 µM | IC50 [11, 22]: 38.5 µM

Sequence: QTNAMVTLR
IC50 [6, 22]: 16.2 µM | IC50 [7, 22]: 1.2 µM

Sequence: QVPKLLLWF
IC50 ([9]; source organism: Variola virus): ≥ 371 µM | IC50 ([11]; source organism: Variola virus): 2.06 µM

Sequence: SKRERQLAK
IC50 ([6]; source organism: Vaccinia virus Copenhagen): 30.4 µM

Sequence: SPEGEETII
Kd [1, 25]: 11.1 µM | Kd [2, 25]: ≥ 78.1 µM | Kd [3, 25]: ≥ 40.6 µM | Kd [4, 25]: 0.27 µM | Kd [5, 25]: 15.9 µM

Sequence: TNTTTEDHK
IC50 [7, 22]: ≥ 110 µM

Sequence: TTAAGPPKA
IC50 [7, 22]: 40.6 µM | IC50 [11, 22]: 11.7 µM

Sequence: VAGLITGGR
IC50 [6, 22]: ≥ 104 µM | IC50 [7, 22]: 26.1 µM | IC50 [11, 22]: ≥ 655 µM

Sequence: VQRQIQVHA
IC50 [9, 22]: 13.5 µM | IC50 [11, 22]: 45.5 µM

Kd [12]: ≥ 20 µM | Kd [13]: ≥ 20 µM | Kd [14]: ≥ 20 µM | Kd [15]: ≥ 20 µM | Kd [16]: ≥ 20 µM | Kd [17]: ≥ 20 µM | Kd [18]: ≥ 20 µM | Kd [19]: ≥ 20 µM | Kd [20]: 0.0054 µM
Sequence: VTSSVSSGY

Sequence: YPDLNFDNTY
Kd [1, 25]: ≥ 69.6 µM | Kd [2, 25]: 1.75 µM | Kd [3, 25]: 0.0184 µM | Kd [4, 25]: 0.0222 µM | Kd [5, 25]: ≥ 69.6 µM

Sequence: YPSMFTLRHI
Kd [1, 25]: 0.0155 µM | Kd [2, 25]: 0.0208 µM | Kd [3, 25]: 0.446 µM | Kd [4, 25]: 0.000943 µM | Kd [5, 25]: 0.00258 µM
